The text below walks through data of patent publication US20170106051A1 (BAYLOR RESEARCH INSTITUTE, published 2017).

For one assay, the target named is T1, human DCIR (human, UniProt Q9UMR7 1-237).
T1 construct: whole, on cells; The assay was on primary human blood DCs
T1 sequence (looked up): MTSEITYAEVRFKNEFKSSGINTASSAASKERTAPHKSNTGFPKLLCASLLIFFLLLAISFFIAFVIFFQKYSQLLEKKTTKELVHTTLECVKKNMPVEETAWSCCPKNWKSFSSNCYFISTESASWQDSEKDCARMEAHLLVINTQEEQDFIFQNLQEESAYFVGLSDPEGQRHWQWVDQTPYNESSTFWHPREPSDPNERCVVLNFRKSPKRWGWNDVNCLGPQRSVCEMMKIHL
The assay is described as follows: flow cytometry on purified human blood pDCs, detection with anti-human IL-10. The procedure: (§1) The ability of antibody-IL-10 fusion proteins to bind to human DCs was measured. Both myeloid DC (mDCs) and plasmacytoid DCs (pDCs) were purified from human blood. DCs were incubated for 20 min in ice in the presence of different concentrations of recombinant fusion proteins of antibody and IL-10 (FIG. 1). After vigorous washing, DCs were further stained with anti-human IL-10 to detect surface bound antibody-IL-10 fusion proteins using flow cytometry.

The target of a further assay is T2, human CD40 (human, UniProt P25942 21-277).
T2 construct: whole, on cells; The assay was on primary human blood DCs; also called hCD40
T2 sequence (P25942 21-277): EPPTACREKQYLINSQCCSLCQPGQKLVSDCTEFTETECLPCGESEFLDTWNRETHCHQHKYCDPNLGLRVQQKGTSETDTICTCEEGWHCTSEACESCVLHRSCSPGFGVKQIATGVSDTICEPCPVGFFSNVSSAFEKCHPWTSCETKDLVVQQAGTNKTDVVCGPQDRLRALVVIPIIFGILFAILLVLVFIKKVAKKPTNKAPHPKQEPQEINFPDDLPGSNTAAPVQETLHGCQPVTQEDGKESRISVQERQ
The assay is described as follows: flow cytometry on purified human blood mDCs, detection with anti-human IL-10. The procedure:
as §1
A general note: Flow cytometry measures light scatter and fluorescence of single cells or particles in a stream.

B1: mAnti-DCIR_9E8_H-LV-hIgG4H-C-Flex-v1-hIL-10 antibody (antibody)
heavy: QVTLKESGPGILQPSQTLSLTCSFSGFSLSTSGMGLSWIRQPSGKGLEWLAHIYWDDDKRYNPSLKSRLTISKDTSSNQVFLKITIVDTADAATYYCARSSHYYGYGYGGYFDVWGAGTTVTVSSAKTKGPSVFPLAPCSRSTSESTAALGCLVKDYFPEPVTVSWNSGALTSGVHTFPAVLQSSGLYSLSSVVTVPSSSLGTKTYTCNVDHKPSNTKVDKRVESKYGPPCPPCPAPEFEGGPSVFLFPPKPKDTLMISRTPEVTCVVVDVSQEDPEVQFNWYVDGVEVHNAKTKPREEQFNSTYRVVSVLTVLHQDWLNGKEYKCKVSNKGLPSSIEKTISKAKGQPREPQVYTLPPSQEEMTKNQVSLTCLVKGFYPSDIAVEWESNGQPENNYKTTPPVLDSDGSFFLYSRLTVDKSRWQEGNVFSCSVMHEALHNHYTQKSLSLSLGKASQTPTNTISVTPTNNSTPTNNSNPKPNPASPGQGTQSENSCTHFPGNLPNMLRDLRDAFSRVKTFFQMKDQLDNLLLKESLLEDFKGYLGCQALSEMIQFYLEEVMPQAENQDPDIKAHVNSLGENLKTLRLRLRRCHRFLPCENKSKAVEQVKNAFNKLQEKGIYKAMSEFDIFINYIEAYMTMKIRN
light: NIVLTQSPASLAVSLGQRATISCRASESIHSYGNSFLHWYQQKPGQPPKLLIYLASNLESGVPARFSGSGSRTDFTLTIDPVEADDAATYYCQQNNEDPWTFGGGTKLEIKRTVAAPSVFIFPPSDEQLKSGTASVVCLLNNFYPREAKVQWKVDNALQSGNSQESVTEQDSKDSTYSLSSTLTLSKADYEKHKVYACEVTHQGLSSPVTKSFNRGEC
notes: Mouse/human chimeric IgG4 kappa antibody with human IL-10 fused through a linker to the C-terminus of the heavy chain; also called anti-DCIR (9E8)-IL-10; Anti-DCIR-9E8-hIL-10
Turning to B1, in the assay with human DCIR, the binding result was “binds”.

B2: manti-hCD40_24A3.3F1_H-LV-hIgG4H-C-Flex-v1-hIL-10 antibody (antibody)
heavy: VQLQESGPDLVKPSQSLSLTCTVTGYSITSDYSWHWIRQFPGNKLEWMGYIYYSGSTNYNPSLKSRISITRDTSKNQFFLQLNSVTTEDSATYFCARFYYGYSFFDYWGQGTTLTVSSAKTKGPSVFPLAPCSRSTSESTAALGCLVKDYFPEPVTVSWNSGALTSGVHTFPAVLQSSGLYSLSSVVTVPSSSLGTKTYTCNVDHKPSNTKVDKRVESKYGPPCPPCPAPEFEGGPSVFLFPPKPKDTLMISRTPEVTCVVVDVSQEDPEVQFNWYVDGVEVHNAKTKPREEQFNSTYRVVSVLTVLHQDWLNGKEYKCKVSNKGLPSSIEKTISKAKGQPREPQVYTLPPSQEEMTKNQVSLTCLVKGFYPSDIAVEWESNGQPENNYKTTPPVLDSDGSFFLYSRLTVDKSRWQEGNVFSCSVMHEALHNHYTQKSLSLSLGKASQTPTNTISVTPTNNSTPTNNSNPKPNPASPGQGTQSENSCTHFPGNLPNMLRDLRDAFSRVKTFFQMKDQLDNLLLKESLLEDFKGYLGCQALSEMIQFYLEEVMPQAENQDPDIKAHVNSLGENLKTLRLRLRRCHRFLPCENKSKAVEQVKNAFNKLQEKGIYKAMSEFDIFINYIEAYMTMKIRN
light: QIVLTQSPAFMSASPGEKVTMTCSASSSVSYMHWYQQKSGTSPKRWIYDTSKLASGVPARFSGSGSGTSYSLTISSMEAEDAATYYCQQWSSNPLTFGAGTKLEIKRTVAAPSVFIFPPSDEQLKSGTASVVCLLNNFYPREAKVQWKVDNALQSGNSQESVTEQDSKDSTYSLSSTLTLSKADYEKHKVYACEVTHQGLSSPVTKSFNRGECAS
notes: Mouse/human chimeric IgG4 kappa antibody with human IL-10 fused through a linker to the C-terminus of the heavy chain; also called anti-CD40 (24A3)-IL-10; Anti-CD40-24A3-hIL-10
Consider B2, for which the binding result in the assay with human CD40 is recorded as “binds”.
